Measured values published in patent US20210095041A1 (SURFACE ONCOLOGY, published 2021).

What was measured:
[1] = target: T1, recombinant human CD39 (human, UniProt P49961 38-478); assay: BLI (Octet), clone 22 captured on AHC biosensor, recombinant human CD39 as analyte, 1:1 model
T1 construct: The clone 1-20 assays used carrier-free human CD39-His lacking transmembrane domains (R&D Systems 4397-EN-010); also called rhCD39
T1 sequence (looked up): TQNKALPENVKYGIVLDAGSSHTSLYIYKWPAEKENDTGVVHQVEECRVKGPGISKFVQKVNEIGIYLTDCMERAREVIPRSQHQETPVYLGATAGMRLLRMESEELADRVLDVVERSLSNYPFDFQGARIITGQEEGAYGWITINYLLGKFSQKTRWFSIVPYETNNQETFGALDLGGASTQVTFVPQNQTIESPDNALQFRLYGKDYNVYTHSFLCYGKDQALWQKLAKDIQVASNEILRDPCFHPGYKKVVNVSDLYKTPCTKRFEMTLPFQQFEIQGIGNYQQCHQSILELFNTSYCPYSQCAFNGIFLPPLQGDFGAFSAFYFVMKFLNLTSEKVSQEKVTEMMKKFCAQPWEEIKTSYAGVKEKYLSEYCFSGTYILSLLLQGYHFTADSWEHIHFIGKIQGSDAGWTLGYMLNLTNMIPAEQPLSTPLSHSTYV
Procedure: (§1) In the first configuration, an Anti-Human Immunoglobulin G (IgG) Fragment Crystallizable (Fc) Capture (AHC) biosensor was used first to capture 1 μg/mL of clone 22 as the ligand onto 8 biosensors and subsequently to measure association (600 s) and dissociation (900 s) of 0 to 5 μg/mL of recombinant CD39 from either human, rat, or cynomolgus monkey as the analyte. A second configuration was required for recombinant mouse CD39 binding analysis, as the positive control antibody was a rat IgG and would not bind to the AHC biosensor. Recombinant mouse CD39 binding to clone 22 was analyzed with this second configuration to achieve a direct comparison with the positive control antibody. […] Subsequently, association (600 s) and dissociation (1200 s) of recombinant mouse CD39 (analyte) was measured at a concentration range of 0 to 5.0 μg/mL for both antibodies. […] Under both configurations, association constants (kₐ) and dissociation constants (kd) were determined and KD was calculated for each antibody where binding of the analyte was observed (clone 22 with recombinant CD39 from both human and cynomolgus monkey and Duha59 positive control antibody with recombinant mouse CD39). Kinetic binding parameters were not determined for interactions where binding was not observed (clone 22 with recombinant CD39 from both mouse and rat).

[2] = target: T2, recombinant rat CD39 (rat, UniProt P97687 38-478, limits assumed); assay: BLI (Octet), clone 22 captured on AHC biosensor, recombinant rat CD39 as analyte
T2 sequence (looked up): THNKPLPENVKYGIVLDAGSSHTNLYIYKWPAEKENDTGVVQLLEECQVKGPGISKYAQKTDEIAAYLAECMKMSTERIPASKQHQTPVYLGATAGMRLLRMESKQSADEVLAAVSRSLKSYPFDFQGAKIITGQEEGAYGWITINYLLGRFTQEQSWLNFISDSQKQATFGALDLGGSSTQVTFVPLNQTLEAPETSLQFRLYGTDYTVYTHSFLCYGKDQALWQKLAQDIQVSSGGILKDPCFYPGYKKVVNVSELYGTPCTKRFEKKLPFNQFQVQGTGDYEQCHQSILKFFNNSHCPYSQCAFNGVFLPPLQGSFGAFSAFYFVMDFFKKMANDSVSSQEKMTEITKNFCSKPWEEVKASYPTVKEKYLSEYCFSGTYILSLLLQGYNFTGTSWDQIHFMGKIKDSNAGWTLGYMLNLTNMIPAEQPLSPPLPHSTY
Procedure: as §1

[3] = target: T3, recombinant mouse CD39 (mouse, UniProt P55772 38-478, limits assumed); assay: BLI (Octet), clone 22 amine-coupled to AR2G biosensor, recombinant mouse CD39 as analyte
T3 sequence (looked up): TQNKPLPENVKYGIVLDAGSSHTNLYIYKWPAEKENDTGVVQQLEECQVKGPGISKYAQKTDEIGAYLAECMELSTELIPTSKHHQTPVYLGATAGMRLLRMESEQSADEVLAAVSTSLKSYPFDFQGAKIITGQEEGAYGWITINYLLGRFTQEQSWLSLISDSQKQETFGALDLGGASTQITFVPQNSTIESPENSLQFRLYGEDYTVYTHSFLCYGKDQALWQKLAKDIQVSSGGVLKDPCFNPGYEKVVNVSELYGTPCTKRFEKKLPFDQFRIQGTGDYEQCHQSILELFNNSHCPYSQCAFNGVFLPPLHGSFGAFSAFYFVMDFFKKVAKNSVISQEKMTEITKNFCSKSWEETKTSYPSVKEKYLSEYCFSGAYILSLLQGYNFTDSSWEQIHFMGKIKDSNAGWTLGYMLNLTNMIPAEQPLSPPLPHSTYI
Procedure: as §1

[4] = target: T4, recombinant cynomolgus monkey CD39 (cynomolgus monkey, UniProt A0A7N9DGH8 38-478); assay: BLI (Octet), clone 22 captured on AHC biosensor, recombinant cynomolgus monkey CD39 as analyte, 1:1 model
T4 sequence: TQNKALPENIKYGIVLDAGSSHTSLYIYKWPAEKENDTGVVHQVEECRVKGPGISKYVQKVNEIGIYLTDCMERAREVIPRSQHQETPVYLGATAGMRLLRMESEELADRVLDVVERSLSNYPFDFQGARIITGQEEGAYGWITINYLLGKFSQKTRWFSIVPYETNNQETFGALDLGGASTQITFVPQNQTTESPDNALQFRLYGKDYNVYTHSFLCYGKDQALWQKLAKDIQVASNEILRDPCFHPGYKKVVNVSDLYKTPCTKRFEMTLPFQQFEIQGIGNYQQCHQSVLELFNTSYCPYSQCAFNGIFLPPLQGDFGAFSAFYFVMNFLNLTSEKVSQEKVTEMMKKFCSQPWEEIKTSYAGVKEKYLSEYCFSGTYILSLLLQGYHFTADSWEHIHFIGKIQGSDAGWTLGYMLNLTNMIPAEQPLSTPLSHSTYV
Procedure: as §1

Kd [1]: 1.11 nM
Kd [4]: 0.406 nM
B1: clone 22 (antibody, human IgG4 S228P, kappa, V domains shown)
VH: QVQLVQSGAEVKKPGSSVKVSCKASGGTFSSEGISWVRQAPGQGLEWMGSILPIFGTANYAQKFQGRVTITADESTSTAYMELSSLRSEDTAVYYCAREAGYYRYRYFDLWGRGTLVTVSS
VL: EIVMTQSPATLSVSPGERATLSCRASQSVSSNLAWYQQKPGQAPRLLIYGASTRATGIPARFSGSGSGTEFTLTISSLQSEDFAVYYCQQHALWPLTFGGGTKVEIKR
notes: Human IgG4 with the S228P mutation and a human kappa light chain; also called anti-CD39 antibody clone 22; antibody clone number 22
binding result [2]: no binding (tested: 0 to 5 µg/mL recombinant rat CD39)
binding result [3]: no binding (tested: 0 to 5.0 µg/mL recombinant mouse CD39)
